Experimental data as given in the supplement of paper PMC12042874.
± gives the uncertainty stated by the source.

Assay: amyloid nucleation score (Sup35N fusion, yeast selection) (log enrichment); library NNK3; higher = more nucleation; inactive = no reads after selection
Procedure, shortened: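 For the nucleation score, DiMSum gave the log enrichment of output over input reads, centred on the mode score of non-aggregating sequences. Psi-negative yeast expressing Sup35N fused to peptides of 20 random codons were induced with 100 μM copper sulfate for 24 hours and grown 7 days at 30°C on medium lacking adenine and uracil. Input and output plasmid inserts were Illumina-sequenced, and sequences with under 100 input reads were excluded.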

Substance | amyloid nucleation score
LVNCISIVLFPECNKSLLHR | 2.35 ± 0.077
LVNELAQVVVCLGSRSTVLG | inactive
LVNGVHLREWVTPRVECGSF | inactive
LVSHSTMLPVSFFAHYRGEV | inactive
LVSTEKWEYLGQCARRELRF | -0.884 ± 2.4
LVTIYW | inactive
LVTPSSTALFWSNFLWSELP | inactive
LVVCYGNWMRLVGIFINGNS | inactive
LVVTYWEMRLVPADAK | inactive
LVVVECSSLMRADLCSTQVM | inactive
LVYAKNMLFDNKDWCV | inactive
LVYPQIYVQV | inactive
LWFMDFMQSSNSEYQPIVGL | inactive
LWHGIICFCFLAYSWGKSAV | inactive
LWQGNMM | -1.07 ± 1.9
LWRKMVVPYFYP | inactive
LWRTGRALWAMNWKAYIQFK | inactive
LWSIRYFKIS | inactive
LWSLYFDFVQGFGMYLSQSL | inactive
LWSSDVEFLYGCASSCDFMG | inactive
LWSYITK | inactive
LYCPGYSMKSSVL | inactive
LYFNVSTTIAIRIRSYSYRV | -0.299 ± 0.62

Substance | amyloid nucleation score
LYFSNRTIKEYIVN | inactive
LYFYNIESLAMIFNMNENLV | 2.31 ± 0.058
LYIGQGSMIFFYSVVGFSAC | 2.36 ± 0.087
LYIIKSR | -0.51 ± 1.7
LYINYLCWMNKYTACLPLHL | inactive
LYLQVALRTWLLSRWDLDDI | inactive
LYNYAVSISTLIH | 0.971 ± 0.2
LYRLPRGYIRGGLLMLSS | inactive
LYSCMFIMLFQNYFLPIGVA | inactive
LYSLFVMFLSVKVWFIVFM | inactive
LYVDCGLRIWRNMSAIVGCV | inactive
LYVFLLNECSWRAPGASI | inactive
LYVTILNVLLLHMTHSLFSG | inactive
MACGGIKTIDTWNGDKFNVQ | inactive
MAFRETRWNFLLNKV | inactive
MCDGFVVVNLILFWKVEMI | inactive
MCEGLEFLNTK | inactive
MCLSILE | inactive
MCNMCR | inactive
MCQNLRMYMIYHRQGKWMKS | inactive
MCVYITYLNLWSDNSLRDRT | 2.23 ± 0.061
MCYQNMR | inactive
MDMLMLMGMALLIDSNVQAK | inactive

Substance | amyloid nucleation score
MDNLCGVVFCGSWSVVYSAR | 3.35 ± 0.06
MDRRNGNRN | inactive
MDVARRMFLISYIFIIFVVR | inactive
MELNLNKSSAYYKSVHFSVT | -0.053 ± 0.3
MERVRGRRMGVIVAFDVDGW | 1.11 ± 0.19
MESRGALYLSFRGRNCSSTQ | 0.371 ± 0.19
MEVLLVIYSDCERARSDTNI | inactive
MEWFFVSYPLITGWMGS | inactive
MFLSALDNGLLVNGYVICVC | inactive
MFMMTKRNCNSTCCHYKFRV | 0.656 ± 0.16
MFNILADKGSRARSERASL | inactive
MFQGHMSWII | inactive
MFQPFYFHNFYISCKLA | 1.95 ± 0.092
MFRVSWFLISGLLRSVAWNG | inactive
MFSYSNSHFSLRLMWRGLRF | inactive
MFWEGVTNSEMATKLHDKCI | inactive
MGKKSAHLSYRICVQCGKDG | inactive
MGLGGHIVLSGCSWFMYHIG | inactive
MGTRFVLGPVQNLCDIGSAW | inactive
MHNKVGPYTD | inactive
MHWCN | 0.228 ± 0.82
MIGVSRLCNRRIF | inactive
MIPCLHEFLYLNSWDNKVGL | inactive

Substance | amyloid nucleation score
MIRRKRNAYMR | inactive
MIRTFKNSYISNGHCMVRRH | inactive
MIRVSHNRNASDQLRFASSL | inactive
MKAYILMVDRLVVELVPHVA | -0.107 ± 0.35
MKCCFSTLIPAKYNLDTLIL | inactive
MKEDSSYHWRLPHVTSTFVG | inactive
MKGCWFWKVIENFHIKSHCR | inactive
MKIGETYDLTSINPAAWNVR | inactive
MKLHTPIEMLEGTHIGHVCG | inactive
MKLVDLGVEIRLRRLAVSSV | inactive
MKVEVYPSTVFMRYRVNWVI | inactive
MKYRTALHTF | -0.961 ± 1.9
MLCFKPKPVRARNPGNILSH | inactive
MLDCYWPFPNISIRIWTEWV | inactive
MLDRCD | inactive
MLDYVF | inactive
MLFSIICNFGNKFLTYKEFT | 0.89 ± 0.24
MLIQPWSSSRNYVPPAEYW | inactive
MLIYSIVLGFKFSPPGFTSN | inactive
MLLCDKFVVCTCIGVQVYSY | 2.19 ± 0.087
MLLCMILPK | 2.26 ± 0.078
MLNNNRWVGVFRLCWNVVWS | inactive
MLNWPIDRDSWRPGFDMWLG | -0.426 ± 0.6

Substance | amyloid nucleation score
MLRSDPS | inactive
MLTFLVYSCGTGWVCPLLRK | inactive
MLYNCRQGCKRSW | 0.248 ± 0.44
MMCFTLS | inactive
MMFARKFAIKSTKRIMVGRT | inactive
MMFDYLLLRGHNAQIQLWWY | inactive
MMHILNGRSEVAPFYSTPIS | inactive
MMLDTWVTYPMREKLDAYRV | inactive
MMPDYKPR | inactive
MMRNTDK | inactive
MNKNIRGYDLFKMRMMDWCM | inactive
MNLVSSIVNYCFGRWGWLVG | inactive
MNRLNPRYMMIKYMDIQKWW | inactive
MPCNVKYSTVCFTA | inactive
MQFEINRRVGHRSPNAYLE | inactive
MRELQENVNDDS | inactive
MRLNGFLRRKGRVSNMWHTG | inactive
MRLVACA | inactive
MRLVICTAHWQSFYRFYIIL | inactive
MRMTTYSGIRVGIIERIMIN | inactive
MRPVT | inactive
MRRTSCTVYTGKIRRIMYVV | inactive
MRYVHRCSRWYLLQQLLRIH | inactive

Substance | amyloid nucleation score
MSCTDRYEIL | inactive
MSEFSQCRFKSHTFFVTSNR | inactive
MSFRIVFLPC | inactive
MSGLENVACDYKRELAMKRS | inactive
MSLIRYKLG | inactive
MSLWCTITGECKGDGWY | inactive
MSNRVMLKNYSLELEEIGRK | inactive
MSRGCCINLTLQIRVFWNTM | inactive
MSSFTAYLLNLR | inactive
MSTLVTMYHYGVGGCVWFYL | inactive
MSVTITGALQVVTKVPANMI | 0.593 ± 0.2
MSVTMMAKWTTLILGIGTGM | inactive
MSYEDTPCH | inactive
MSYVSFKFVERSMGNNSGGI | -0.137 ± 0.64
MTLCLLSFRGQRSMPLYLWT | inactive
MTSIQEF | inactive
MTSQSMKVISWCDRHRQMNS | 1.03 ± 0.13
MTTVKTDCFSQSRYYRHWET | inactive
MTVSVITAMGFTIGFFADNQ | 0.494 ± 0.26
MTYGLFVIYMRGGSNLMLHV | inactive
MVDVNLAKRNGMNQSLHGNS | inactive
MVHAVPHMVDGGS | inactive
MVKDCITRVYFVVWFDYSRS | inactive

Substance | amyloid nucleation score
MVQTKMSQFKSFEFARVMWH | inactive
MVTRMCYIACLVFRVWAMCR | inactive
MVVVPDQLRVTGMRSGGKSG | inactive
MVYPQLYTTKVVNVVPGLGS | inactive
MWACSKYRWMHATDGVGLTY | 0.674 ± 0.17
MWAGCGVSGPALGHAGSARR | inactive
MWFAKAGTCNGSWLDMLSGW | inactive
MWGSM | inactive
MWLPPAVQVLLILKAVIVKL | inactive
MWVPTRHKGLYFVNVVFACH | inactive
MYDLDHSFCTLLTEVRALMK | -0.396 ± 1.4
MYIVRRKTICET | inactive
MYNLNVLNE | inactive
MYRCKKGGLCKLSGCTSKAL | inactive
MYRQGGCVIHWSNVG | inactive
MYTISVKAMNGWYLSLKVGC | inactive
MYTKNPSVSILCFDENGERA | inactive
MYTQCLVYSR | inactive
MYVTIGASNKSYRLLFVARW | -0.368 ± 0.75
NAFNL | inactive
